Drawing on PMC3328465, this text covers Kd for 26 substances.

For one data set, the system named is CT-SBP2L (human). Nature of the data set: EMSA. As to conditions: EMSA: 20 fmol RNA in 20 uL, 1x PBS, glycerol, 250 ug yeast tRNA, 10 mM DTT, 5 ug soybean trypsin inhibitor, 37 C 30 min, 4% native PAGE; pH not stated. (In general: A gel shift assay detects complexes by their altered migration in electrophoresis.)
The next data set deals with CT-SBP2 (human). Nature of the data set: EMSA. As to conditions: EMSA: 20 fmol RNA in 20 uL, 1x PBS, glycerol, 250 ug yeast tRNA, 10 mM DTT, 5 ug soybean trypsin inhibitor, 37 C 30 min, 4% native PAGE; pH not stated.

What is called Kd is a measure of binding affinity in units of concentration. On to DIO1 SECIS, for which the Kd with CT-SBP2L (human) stood at 0.0199 µM; in the data set with CT-SBP2 (human), 0.0027 µM.

In the case of DIO2 SECIS, the Kd was determined as 0.0713 µM in the data set on CT-SBP2L (human) and 0.0068 µM in the data set on CT-SBP2 (human).

Consider DIO3 SECIS, for which the Kd in the data set with CT-SBP2L (human) stood at 0.0557 µM; in the data set on CT-SBP2 (human), 0.0054 µM.

GPX1 SECIS: the Kd with CT-SBP2L (human) was found to be 0.112 µM; in the data set on CT-SBP2 (human) it was 0.0063 µM.

With GPX2 SECIS, the Kd turned out to be 0.135 µM with CT-SBP2L (human) and 0.0109 µM in the data set on CT-SBP2 (human).

In the case of GPX3 SECIS, the Kd was found to be 0.135 µM with CT-SBP2L (human) and 0.025 µM with CT-SBP2 (human).

On to GPX4 SECIS, for which the figures for the Kd in the data set with CT-SBP2L (human) and in the data set with CT-SBP2 (human) were 0.0582 µM and 0.0132 µM, respectively.

In the case of GPX6 SECIS, the figures for the Kd in the data set on CT-SBP2L (human) and with CT-SBP2 (human) were 0.313 µM and 0.15 µM, respectively.

Consider SEP15 SECIS, for which the dissociation constant (Kd) came to 0.0529 µM with CT-SBP2L (human) and 0.005 µM with CT-SBP2 (human).

As to SPS2 SECIS, the dissociation constant Kd with CT-SBP2L (human) worked out at 0.129 µM; in the data set on CT-SBP2 (human) it was 0.0075 µM.

With SelH SECIS, the dissociation constant (Kd) came to 0.102 µM in the data set with CT-SBP2L (human) and 0.0047 µM in the data set with CT-SBP2 (human).

With SelI SECIS, the Kd in the data set with CT-SBP2L (human) was 0.0592 µM; in the data set on CT-SBP2 (human) it was 0.0122 µM.

As to SelK SECIS, the Kd in the data set on CT-SBP2L (human) came out at 0.0329 µM; with CT-SBP2 (human) it was 0.0036 µM.

Take SelM SECIS: the Kd in the data set with CT-SBP2L (human) worked out at 0.0234 µM; with CT-SBP2 (human) it was 0.003 µM.

With SelN SECIS, the values for the Kd in the data set on CT-SBP2L (human) and in the data set with CT-SBP2 (human) were 0.089 µM and 0.0105 µM, respectively.

With SelO SECIS, the figures for the Kd in the data set with CT-SBP2L (human) and with CT-SBP2 (human) were 0.0587 µM and 0.007 µM, respectively.

Turning to SelP SECIS 1, the results for the Kd in the data set on CT-SBP2L (human) and with CT-SBP2 (human) were 0.0592 µM and 0.0034 µM, respectively.

In the case of SelP SECIS 2, the Kd in the data set on CT-SBP2L (human) was determined as 0.0276 µM; with CT-SBP2 (human) it was 0.0016 µM.

Take SelR SECIS: the Kd is 0.196 µM in the data set with CT-SBP2L (human) and 0.0097 µM with CT-SBP2 (human).

On to SelS SECIS, for which the Kd in the data set on CT-SBP2L (human) worked out at 0.093 µM; in the data set with CT-SBP2 (human) it was 0.0259 µM.

For SelT SECIS, the Kd in the data set with CT-SBP2L (human) was 0.102 µM; in the data set on CT-SBP2 (human) it was 0.004 µM.

As to SelV SECIS, the Kd is 0.0124 µM with CT-SBP2L (human) and 0.0067 µM in the data set on CT-SBP2 (human).

As for SelW SECIS, the Kd in the data set on CT-SBP2L (human) turned out to be 0.0877 µM; in the data set with CT-SBP2 (human) it was 0.004 µM.

Take TR1 SECIS: the Kd in the data set with CT-SBP2L (human) amounted to 0.0206 µM; in the data set on CT-SBP2 (human), 0.0058 µM.

TR2 SECIS: the Kd in the data set on CT-SBP2L (human) was 0.0544 µM; in the data set on CT-SBP2 (human), 0.0116 µM.

For TR3 SECIS, the Kd in the data set with CT-SBP2L (human) is 0.115 µM; with CT-SBP2 (human) it was 0.0042 µM.
